Each block holds one binder with its values, some of them ahead of it.
Key:
[1] = biological target: T1, ApoL1 Protein, human recombinant (Sino Biological 13910-H08B) (human, UniProt O14791 28-398); experiment: imaging flow cytometry: RPMI 8226 cells pre-incubated with 30 µg/mL bsAb or isotype control, then Alexa-488 labeled recombinant ApoL1
T1 construct: also called rApoL1; recombinant ApoL1
T1 sequence: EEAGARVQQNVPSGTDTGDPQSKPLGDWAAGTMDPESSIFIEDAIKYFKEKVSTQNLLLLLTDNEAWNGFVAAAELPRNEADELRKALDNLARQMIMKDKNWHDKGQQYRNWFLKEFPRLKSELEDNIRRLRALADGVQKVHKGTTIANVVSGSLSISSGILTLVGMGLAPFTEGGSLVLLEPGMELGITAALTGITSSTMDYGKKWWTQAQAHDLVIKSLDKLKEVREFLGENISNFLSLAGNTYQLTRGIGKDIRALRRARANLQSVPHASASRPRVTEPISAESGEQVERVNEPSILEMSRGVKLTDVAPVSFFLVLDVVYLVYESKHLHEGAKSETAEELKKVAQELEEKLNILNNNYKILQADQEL
Description: Cells were prepared as above with the addition of 15 μg/mL unlabeled ApoL1 in the blocking buffer for overnight incubation. After blocking, cells were washed 2 times with CSB and aliquoted to 50 μl aliquots for each reaction. First, bsAb or isotype control was added at 30 μg/mL for 1.5 hours, followed by 2 washes and […] of Alexa labeled ApoL1-488. Cells were incubated for 1 hour and washed 3 times with the final wash resuspended in 50 μl of CSB.
Imaging flow cytometry acquisition was performed on an ImageStream X MK II (Luminex Corporation, Seattle, Washington) with fluidics set at low speed, sensitivity set to high, magnification set to 60×, and illumination set to: 405:120 mW, 488:200 mW, 561:200 mW, 642:150 mW, SSC:4.38 mW. All samples were acquired using the autosampler with INSPIRE software for an acquisition time of 4000 events or 8 minutes per sample, with events counting SSC channel from 5.2×10\hat{ }5 to 8.9×10\hat{ }7. Gates were set and quantified using IDEAS software version 6.2.
Next, Alexa-488 labeled recombinant ApoL1 was used to determine if cell bound bsAb can bind ApoL1. Some background binding of labeled ApoL1 to cells without bsAb, likely due to existing binding affinities for ApoL1 to cell membranes, was foreseen. […]

[2] = biological target: T2, BCMA on RPMI 8226 (ATCC CCL-155) multiple myeloma cells (UniProt Q02223 1-184, limits assumed); experiment: imaging flow cytometry on fixed RPMI 8226 cells; Alexa-488 labeled bsAb at 3 µg/mL against Alexa-488 labeled human IgG1 isotype control
T2 construct: whole, on cells; No BCMA-negative cell control is reported; also called MM cells
T2 sequence (looked up): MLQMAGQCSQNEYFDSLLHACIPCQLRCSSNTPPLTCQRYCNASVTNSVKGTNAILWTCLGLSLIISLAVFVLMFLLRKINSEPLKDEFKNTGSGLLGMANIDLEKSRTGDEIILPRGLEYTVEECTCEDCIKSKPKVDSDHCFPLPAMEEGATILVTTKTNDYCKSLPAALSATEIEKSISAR
Description: Cells were cultured according to standard protocols. All cell pelleting were performed at 300× g for 5 minutes at 4 C. One to two days prior to the experiment, cells were washed and split to achieve a cell density of approximately […] in a total volume of 10-30 mL containing 10 nM LY411575 (LY). On the day of the experiment, Zombie NIR dye (BioLegend Cat. 423106) was diluted 1:100 in phosphate-buffered saline (PBS). Cells were washed and resuspended in PBS with Zombie NIR dye at a concentration of 1×10\hat{ }7 cells/mL and incubated for 10 minutes at room temperature. […]
Imaging flow cytometry acquisition was performed on an ImageStream X MK II (Luminex Corporation, Seattle, Washington) with fluidics set at low speed, sensitivity set to high, magnification set to 60×, and illumination set to: 405:120 mW, 488:200 mW, 561:200 mW, 642:150 mW, SSC:4.38 mW. […] Gates were set and quantified using IDEAS software version 6.2.
Imaging flow cytometry was used as an assay to determine if the ApoL1-BCMA-bsAb (bsAb) of Example 8 binds the two intended targets in vitro. First, the bsAb and a human IgG1 isotype control were Alexa-488 labeled and binding affinities were determined by measuring total cellular florescence after incubation. […]

[3] = biological target: T1, ApoL1 Protein, human recombinant (Sino …); experiment: Western blot of recombinant ApoL1 (SDS-PAGE, non-reducing and reducing)
[4] = biological target: T1, ApoL1 Protein, human recombinant (Sino …); experiment: dot blot (native)
[5] = biological target: T3, native human Apolipoprotein L1 (ApoL1), in purified TLF / HDL float / normal human serum / endogenous in … (human, UniProt O14791 28-398); experiment: Western blot of column purified TLF (2 ug), non-reducing and reducing
T3 construct: Secreted native protein carried on HDL/TLF particles; also called Native ApoL1; endogenous ApoL1
T3 sequence: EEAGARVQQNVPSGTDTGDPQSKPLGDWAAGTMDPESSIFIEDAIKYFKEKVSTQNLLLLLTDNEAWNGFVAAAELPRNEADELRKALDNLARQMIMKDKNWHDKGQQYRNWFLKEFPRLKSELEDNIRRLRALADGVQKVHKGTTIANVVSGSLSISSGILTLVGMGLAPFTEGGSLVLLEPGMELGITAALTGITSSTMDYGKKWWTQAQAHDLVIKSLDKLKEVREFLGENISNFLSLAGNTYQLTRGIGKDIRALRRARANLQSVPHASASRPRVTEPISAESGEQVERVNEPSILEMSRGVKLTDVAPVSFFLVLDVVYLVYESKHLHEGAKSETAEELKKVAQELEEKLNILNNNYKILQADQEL

[6] = biological target: T1, ApoL1 Protein, human recombinant (Sino …); experiment: bridging ELISA control without bsAb (bsAb-): immobilized ApoL1, then rabbit Fc tagged BCMA, detected with anti-rabbit HRP
Description: Enzyme-Linked Immunosorbent Assay (ELISA) plates were prepared by incubating them overnight at 4° C. with their respective immobilization buffer (bicarbonate/carbonate coating buffer 100 mM) or blocking buffer (PBS, 0.1% Tween-20, 1% BSA).
For the bridging ELISA experiments, ApoL1 (Sino Cat.13910-H08B) or BCMA (Sino Cat. 10620-H15H) were resuspended at a 1:10,000 dilution in ELISA binding buffer (1×PBST+1% BSA) and then incubated overnight at 4° C. ApoL1 was immobilized across all conditions except where BCMA was immobilized as a primary protein (ApoL1-*). Following immobilization, 100 μl of bispecific antibody (bsAb, […] in ELISA blocking buffer) was added and allowed to incubate for 1 hour at 37° C. Subsequently, each well underwent four rounds of 150 μl washes with 1×PBST. Next, 1 μg/mL rabbit Fc tagged BCMA in ELISA blocking buffer was allowed to incubate for 1 hr at 37° C. followed by four more rounds of 150 μl 1×PBST washes. A secondary binding component, anti-rabbit HRP, was added at 1:10,000 and the plate was incubated for an additional hour at 37° C. followed by another four rounds of 150 μl washes with 1×PBST. […] The reaction was halted by adding 50 μl of Stop Solution, and the absorbance was promptly measured at 450 nm on a SpectraMax iD3 plate reader ([…]).

fold increase in average cell fluorescence compared to isotype control [1]: 2 × | fold increase of measured fluorescence per cell compared to isotype control [2]: 20 ×
B1: Clone 13.11×BCMAscFv: bsAbBCMA/ApoL1, anti-ApoL1, BCMA IgG1-scFv (Heavy Chain C-terminus) bispecific antibody (bispecific antibody)
heavy: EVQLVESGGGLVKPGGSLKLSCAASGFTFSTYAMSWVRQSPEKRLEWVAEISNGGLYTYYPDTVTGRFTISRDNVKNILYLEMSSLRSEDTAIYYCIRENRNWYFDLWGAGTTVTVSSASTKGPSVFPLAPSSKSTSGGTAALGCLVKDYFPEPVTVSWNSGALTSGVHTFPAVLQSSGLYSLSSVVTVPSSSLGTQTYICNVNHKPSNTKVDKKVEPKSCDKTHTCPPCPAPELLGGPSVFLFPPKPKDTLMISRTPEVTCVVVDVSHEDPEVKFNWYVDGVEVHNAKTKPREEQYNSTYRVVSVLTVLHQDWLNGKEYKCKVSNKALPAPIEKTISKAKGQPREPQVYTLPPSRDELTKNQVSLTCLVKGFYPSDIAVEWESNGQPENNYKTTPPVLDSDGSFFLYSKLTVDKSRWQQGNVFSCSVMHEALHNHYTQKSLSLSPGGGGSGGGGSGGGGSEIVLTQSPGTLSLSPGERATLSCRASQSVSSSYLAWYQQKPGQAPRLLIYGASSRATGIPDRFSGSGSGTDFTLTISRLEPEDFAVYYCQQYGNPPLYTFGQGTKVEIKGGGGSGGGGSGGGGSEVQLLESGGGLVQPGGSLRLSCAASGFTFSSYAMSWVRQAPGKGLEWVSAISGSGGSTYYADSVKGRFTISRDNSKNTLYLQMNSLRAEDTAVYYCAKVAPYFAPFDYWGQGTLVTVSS
light: DVLMTQTPLSLPVSLGDQASISCRSSQSIVNSNGNTYLEWYLQKPGQSPKLLIYKVSNRFSGVPDRFSGSGSGTDFTLKISRVEAEDLGVYYCFQGSHVPLTFGAGTKLEIKRTVAAPSVFIFPPSDEQLKSGTASVVCLLNNFYPREAKVQWKVDNALQSGNSQESVTEQDSKDSTYSLSSTLTLSKADYEKHKVYACEVTHQGLSSPVTKSFNRGEC
notes: It was used unlabeled, HRP-labeled or Alexa Fluor 488 labeled, depending on the assay; also called ApoL1-BCMA-bsAb; 488-bsAb

B2: recombinant anti-Hpr antibody, clone SFII 134.3 (antibody, V domains shown)
VH: QIQLVQSGPELKKPGETVKISCKASGYIFTNYGMNWVRQAPGKGLKWMGWINSYTGEATYTDDLKGRFAFSLESSASTAYLQINNLKNEDTATYFCAREGYGDYGYSFDYWGQGTTLTVSS
VL: DIQMTQSPASLSASVGETVTITCRATKNIYTYLAWYQQKQGKSPQFLVYNAKTLAEGVPSRFSGSGSGTQFSLKINSLQPEDFGNYYCQHHYGTPRTFGGGTKLEIK
notes: Recombinant form of mouse anti-Hpr clone SFII 134.3; it was detected with goat anti-mouse secondary; also called recombinant antibody
binding result [3]: no binding (tested: 1:10,000 dilution of antibody)

B3: ascites Prot-G purified anti-Hpr antibody, clone SFII 134.3 (mouse IgG2a) (antibody, V domains shown)
VH: QIQLVQSGPELKKPGETVKISCKASGYIFTNYGMNWVRQAPGKGLKWMGWINSYTGEATYTDDLKGRFAFSLESSASTAYLQINNLKNEDTATYFCAREGYGDYGYSFDYWGQGTTLTVSS
VL: DIQMTQSPASLSASVGETVTITCRATKNIYTYLAWYQQKQGKSPQFLVYNAKTLAEGVPSRFSGSGSGTQFSLKINSLQPEDFGNYYCQHHYGTPRTFGGGTKLEIKR
notes: Hybridoma-derived mouse IgG2a; also called ascites Pro-G purified antibody; purified antibody
binding result [3]: no binding (tested: 1:10,000 dilution of antibody)

binding result [4]: binds | binding result [5]: binds
B4: ascites Prot-G purified anti-ApoL1 antibody, clone SFIII 13.11 (mouse IgG1) (antibody, V domains shown)
VH: EVQLVESGGGLVKPGGSLKLSCAASGFTFSTYAMSWVRQSPEKRLEWVAEISNGGLYTYYPDTVTGRFTISRDNVKNILYLEMSSLRSEDTAIYYCIRENRNWYFDLWGAGTTVTVSS
VL: DVLMTQTPLSLPVSLGDQASISCRSSQSIVNSNGNTYLEWYLQKPGQSPKLLIYKVSNRFSGVPDRFSGSGSGTDFTLKISRVEAEDLGVYYCFQGSHVPLTFGAGTKLELKR
notes: Hybridoma-derived mouse IgG1; also called ascites Pro-G purified antibody; purified antibody

B5: BCMA Protein, Human, Recombinant (ECD, rFc Tag) (Sino Biological 10620-H15H) (Fc fusion, UniProt Q02223 1-54, looked up)
chain: MLQMAGQCSQNEYFDSLLHACIPCQLRCSSNTPPLTCQRYCNASVTNSVKGTNA
notes: extracellular domain; Bought protein; also called recombinant BCMA; rabbit Fc tagged BCMA; not shown: rabbit Fc tag
binding result [6]: no binding (tested: 1 µg/mL rabbit Fc tagged BCMA)
